Data as given in patent publication US20030166143A1 (CADUS TECHNOLOGIES, published 2003).

T1: human formyl peptide receptor like-1 (FPRL-1) receptor (human, UniProt P25090 1-351)
T1 sequence (looked up): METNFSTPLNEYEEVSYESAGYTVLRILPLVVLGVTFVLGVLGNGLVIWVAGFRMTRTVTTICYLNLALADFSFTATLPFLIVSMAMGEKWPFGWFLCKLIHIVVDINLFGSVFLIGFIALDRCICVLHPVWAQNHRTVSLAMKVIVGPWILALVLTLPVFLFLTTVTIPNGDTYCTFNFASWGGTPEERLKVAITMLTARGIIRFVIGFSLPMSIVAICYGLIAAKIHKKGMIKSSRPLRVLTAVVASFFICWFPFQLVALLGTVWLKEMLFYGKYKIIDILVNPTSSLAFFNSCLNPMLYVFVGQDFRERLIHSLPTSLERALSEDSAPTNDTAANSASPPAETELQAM


Columns and labels:
C5a receptor (human) = C5a receptor (human) (UniProt P21730); experiment: cell-based or functional assay
Sequence of C5a receptor (human) (P21730 whole entry): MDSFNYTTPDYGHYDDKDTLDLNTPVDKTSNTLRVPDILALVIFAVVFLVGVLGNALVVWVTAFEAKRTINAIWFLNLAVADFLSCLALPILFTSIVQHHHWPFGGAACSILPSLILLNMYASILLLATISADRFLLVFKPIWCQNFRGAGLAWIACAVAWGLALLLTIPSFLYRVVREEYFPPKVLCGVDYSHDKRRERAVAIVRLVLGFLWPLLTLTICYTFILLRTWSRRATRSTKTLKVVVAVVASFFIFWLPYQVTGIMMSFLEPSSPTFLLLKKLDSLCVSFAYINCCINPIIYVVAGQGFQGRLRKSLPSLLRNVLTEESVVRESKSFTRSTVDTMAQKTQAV

[1] = biological target: T1, human formyl peptide receptor like-1 …; experiment: cell-based or functional assay

Row | Molecule | fold increase in lacZ expression (fus1:lacZ, autocrine yeast) (C5a receptor (human)) [fold] | fold stimulation of β-galactosidase (fus1-lacZ) over background [1] [fold]
1 | native C5a ligand (from UniProt P01031 678-751) | 8 to 12 | 
2 | SLLWLTCRPWEAM [peptide A5, Ser-Leu-Leu-Trp-Leu-Thr-Cys-Arg-Pro-Trp-Glu-Ala-Met] |  | 8
